Assay results taken from patent publication US20200040057A1 (IMMATICS BIOTECHNOLOGIES, published 2020).

These binders were tested against HLA-B*07 (human) (assay: UV peptide exchange ELISA; +++ = yield >50).

Row | Binder | peptide exchange yield [%]
1 | VPRRPARAL | 50 to 75
2 | KPYDGIPAS | 50 to 75
3 | VPYYPRANL | 50 to 75
4 | YPMIPPAQL | 50 to 75
5 | RVMLPKAAL | 50 to 75
6 | AVHEIGHSL | 50 to 75
7 | SPTPVFTTL | 50 to 75
8 | SSASFSSELFRH | 50 to 75
9 | NPERHKPSF | 50 to 75
10 | APGGSSRSSL | 50 to 75
11 | LPQRPNARL | 50 to 75
12 | RPLPVSPARAL | 50 to 75
13 | LPWEQNEQV | 50 to 75
14 | RPVQGIPTY | 50 to 75
15 | LPSPAHAFRAL | 50 to 75
16 | GPKKFIVKL | 50 to 75
17 | NPIFGRKEL | 50 to 75
18 | RPRLRDLPAL | 50 to 75
19 | SPVGVGQRL | 50 to 75
20 | LPVSPARAL | 50 to 75
21 | SPRSGVLL | 50 to 75
22 | SPSSVFTSK | 50 to 75
23 | VPGSDPARYEFL | 50 to 75
24 | KTKSLAQQL | 50 to 75
25 | QPENSLEGISL | 50 to 75

Row | Binder | peptide exchange yield [%]
26 | FPYSGDKILV | 50 to 75
27 | RPPPSRRAVL | 50 to 75
28 | IPDTIASVL | 50 to 75
29 | LPLGGHKSL | 50 to 75
30 | RNRQVATAL | 50 to 75
31 | HPRAPGEQQRL | 50 to 75
32 | RPAPGPAPFV | 50 to 75
33 | APRPGNWIL | 50 to 75
34 | LVILQHQAM | 50 to 75
35 | VPHTGRYTCL | 50 to 75
36 | MPRLLRLSL | 50 to 75
37 | LPRALMRST | 50 to 75
38 | RPSGTAGAAL | 50 to 75
39 | FPNAGPRHLL | 50 to 75
40 | MPFRNIRSIL | 50 to 75
41 | RLAHVRARL | 50 to 75
42 | HVAQPAVVL | 50 to 75
43 | HPNKIKASL | 50 to 75
44 | KPIRTGISPLAL | 50 to 75
45 | VPAQRLGLLL | 50 to 75
46 | MAYDRFIAI | 50 to 75
47 | SAQSLHPVL | 50 to 75
48 | VPSDITTAF | 50 to 75
49 | VLPRAGGAFLM | 50 to 75
50 | TPELKSSIL | 50 to 75

Row | Binder | peptide exchange yield [%]
51 | YPSPLNKHSF | 50 to 75
52 | RPTAASQSRAL | 50 to 75
53 | RPGTGQGGL | 50 to 75
54 | VWEPQGSSRSL | 50 to 75
55 | KIEQIRAVL | 50 to 75
56 | TAYPSLRLL | 50 to 75
57 | VAAAARLTL | 50 to 75
58 | GSRPVTGSV | 50 to 75
59 | APLHGGGSL | 50 to 75
60 | LPNTGRIGQL | 50 to 75
61 | IPETASVVAI | 50 to 75
62 | SPIIHSIL | 50 to 75
63 | RPSQLAPATL | 50 to 75
64 | TPRIGPKVSL | 50 to 75
65 | SPGDKRLAAYL | 50 to 75
66 | GPFQRAAL | 50 to 75
67 | MPKTNLSKM | 50 to 75
68 | TVRPKNAAL | 50 to 75
69 | SPRGTTSTL | 50 to 75
70 | IPIRVDQNGAF | 50 to 75
71 | SPSTSRTPL | 50 to 75
72 | SSPRGTTSTL | 50 to 75
73 | SPSREASAL | 50 to 75
74 | MPVPGILL | 50 to 75
75 | FPRKPYEGRV | 50 to 75
